For series [1], the target named is T1, ω-transaminase from Vibrio fluvialis JS17 (VfTA) (Vibrio fluvialis, UniProt F2XBU9).
T1 sequence (F2XBU9 1-453): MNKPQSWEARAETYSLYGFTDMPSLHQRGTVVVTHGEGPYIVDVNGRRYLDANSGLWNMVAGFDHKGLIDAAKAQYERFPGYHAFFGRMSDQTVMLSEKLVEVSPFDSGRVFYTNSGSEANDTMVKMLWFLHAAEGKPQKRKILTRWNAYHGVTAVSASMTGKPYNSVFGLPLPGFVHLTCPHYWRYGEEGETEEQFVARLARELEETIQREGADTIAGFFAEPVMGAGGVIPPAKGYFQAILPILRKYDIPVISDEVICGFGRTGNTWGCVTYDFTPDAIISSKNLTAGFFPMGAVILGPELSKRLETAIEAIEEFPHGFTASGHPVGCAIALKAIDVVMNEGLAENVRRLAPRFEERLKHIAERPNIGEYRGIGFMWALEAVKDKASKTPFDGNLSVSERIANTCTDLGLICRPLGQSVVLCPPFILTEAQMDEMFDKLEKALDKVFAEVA
In words: product formation by purified VfTA (GC); no product inhibition detected. In kind it is biochemical.

Series [2] concerns the target T1, ω-transaminase from Vibrio fluvialis JS17 (VfTA). In words: enzyme kinetics (GC assay), product inhibition of VfTA. The format is biochemical.
Substrate in series [3]: CC(C)[C@@H]1CC[C@@H](C)CC1=O
In words: steady-state kinetics with purified VfTA (KM, GC assay). The format is biochemical, Vibrio fluvialis. The following applies: pyridoxal-5'-phosphate (PLP).

Substrate in the series “purified protein”: C[C@H](N)c1ccccc1
In words: purified protein. The format is biochemical, Vibrio fluvialis. As to conditions: pyridoxal-5'-phosphate (PLP).

What is called Ki is the dissociation constant of the complex between target and ligand, obtained from inhibition or displacement. Low readings indicate higher affinity, high ones lower affinity. The term Km denotes the substrate concentration at which the rate is half of its maximum. As a reminder, the kcat/Km is the turnover number divided by the Michaelis constant.

`CC(C)[C@@H]1CC[C@@H](C)C[C@@H]1N` [(+)-neomenthylamine]: the “product formation by purified VfTA (GC); no product inhibition detected” value in series [1] is “transaminase (VfTA) from Vibrio fluvialis JS17 (PDB: 5ZTX) that can convert (−)-menthone into (+)-neomenthylamine successfully”.
`CC(=O)c1ccccc1` [Acetophenone]: the Ki in series [2] turned out to be 600 µM.

B1: ω-transaminase from Vibrio fluvialis JS17 (VfTA) (Vibrio fluvialis) (protein)
chain: T1 sequence (F2XBU9 1-453)
Consider B1, for which the Km is 5000 ± 600 µM in series [3] and 800 ± 100 µM in the series “purified protein”. Moreover, the kcat/Km in series [3] came out at 3300 M⁻¹ s⁻¹; in the series “purified protein” it was 54400 M⁻¹ s⁻¹.

For the origin of these results see paper PMC10992614, “Construction and optimization of a biocatalytic route for the synthesis of neomenthylamine from menthone” (Bioresources and Bioprocessing, 2023).
